Numbering of substitutions follows the chain as printed.

B1: J22.9-H (antibody, V domains shown)
VH: EVQLVESGGGLVQPGGSLRLSCAASGFTFSRYWMSWVRQAPGKGLVWVGEINPDSSTINYAPSLKDKFTISRDNAKNTLYLQMNSLRAEDTAVYYCASLYYDYGDAMDYWGQGTLVTVSS
VL: EIVMTQSPATLSVSPGERATLSCKASQSVDSNVAWYQQKPGQAPRALIYSASLRFSGIPARFSGSGSGTEFTLTISSLQSEDFAVYYCQQYNNYPLTFGAGTKLELKR
B2: J22.9-FSY (antibody, V domains shown)
VH: B1 VH with M34F, D54S, M107Y
VL: EIVMTQSPATLSVSPGERATLSCKASQSVESNVAWYQQKPGQAPRALIYSASLRFSGIPARFSGSGSGTEFTLTISSLQSEDFAVYYCQQYNNYPLTFGAGTKLELK
B3: J22.9-ISY (antibody, V domains shown)
VH: B1 VH with M34I, D54S, M107Y
VL: B2 VL

One experiment deals with T1, extracellular domain of cynomolgous BCMA (cynomolgous, UniProt A0A2K5UD97 1-53).
T1 construct: Used coated on plates in ELISA and in the mobile phase in SPR; also called cyBCMA; cynoBCMA
T1 sequence (A0A2K5UD97 entry or part of it limits assumed, form in doubt): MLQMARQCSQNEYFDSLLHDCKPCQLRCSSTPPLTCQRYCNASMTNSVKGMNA
The experiment can be described thus: SPR, IgG immobilised on GLH chip, BCMA in the mobile phase (n = 2).
With B1, the Kd (in general, the concentration at which binding is half-saturated) came out at 200 nM.

In the case of B2, the Kd worked out at 20 nM.

B3 showed a Kd of 17 nM.

In the next experiment the target is T2, extracellular domain of human CD269 (BCMA, TNFRSF17) (human, UniProt Q02223 4-54).
T2 construct: also called hBCMA; human BCMA
T2 sequence: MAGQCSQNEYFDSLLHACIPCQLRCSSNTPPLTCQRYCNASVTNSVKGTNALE
The experiment can be described thus: SPR, IgG immobilised on GLH chip, BCMA in the mobile phase (n = 3). (In general: Surface plasmon resonance follows binding to a sensor surface in real time, without labels.)
Molecule B1 had a Kd of 15 nM.

Regarding B2, binding was characterised by a dissociation constant (Kd) of 2.2 nM.

In turn, B3 yielded a Kd of 2 nM.

The record behind these values is patent US20190112382A1 (published 2019).
